According to article PMC7042088:
Where a chain is given by its changes, count along the chain named. Names and notes keep the numbering of the source. Each block holds one binder with its values, some of them ahead of it.

Target: fluorescently labelled UDP-peptide bisubstrate conjugate
Test: fluorescence polarisation; increasing concentrations of OGT titrated against a fixed concentration of the fluorescent probe; 0.1 M Tris/HCl pH 7.5, 0.15 M NaCl, 0.5 mM TCEP, 5% DMSO; 30 min in the dark

- Kd: 1.6 µM
B1: O-GlcNAc transferase, truncated wild type (catalytic domain and 3.5 TPR repeats, residues 323-1044) (enzyme)
chain: CPTHADSLNNLANIKREQGNIEEAVRLYRKALEVFPEFAAAHSNLASVLQQQGKLQEALMHYKEAIRISPTFADAYSNMGNTLKEMQDVQGALQCYTRAIQINPAFADAHSNLASIHKDSGNIPEAIASYRTALKLKPDFPDAYCNLAHCLQIVCDWTDYDERMKKLVSIVADQLEKNRLPSVHPHHSMLYPLSHGFRKAIAERHGNLCLDKINVLHKPPYEHPKDLKLSDGRLRVGYVSSDFGNHPTSHLMQSIPGMHNPDKFEVFCYALSPDDGTNFRVKVMAEANHFIDLSQIPCNGKAADRIHQDGIHILVNMNGYTKGARNELFALRPAPIQAMWLGYPGTSGALFMDYIITDQETSPAEVAEQYSEKLAYMPHTFFIGDHANMFPHLKKKAVIDFKSNGHIYDNRIVLNGIDLKAFLDSLPDVKIVKMKCPDGGDNADSSNTALNMPVIPMNTIAEAVIEMINRGQIQITINGFSISNGLATTQINNKAATGEEVPRTIIVTTRSQYGLPEDAIVYCNFNQLYKIDPSTLQMWANILKRVPNSVLWLLRFPAVGEPNIQQYAQNMGLPQNRIIFSPVAPKEEHVRRGQLADVCLDTPLCNGHTTGMDVLWAGTPMVTMPGETLASRVAASQLTCLGCLELIAKNRQEYEDIAVKLGTDLEYLKKVRGKVWKQRISSPLFNTKQYTMELERLYLQMWEHYAAGNKPDHMIKPVEVTE

- Kd: 11 µM
B2: O-GlcNAc transferase N648Y, truncated (catalytic domain and 3.5 TPR repeats, residues 323-1044) (enzyme)
chain: B1 chain with N326Y
